Test results as given in PMC5708134.

Substrate: CC1=CC(=O)c2ccccc2C1=O
Assay: Chemical redox cycling by DCXR
Type: biochemical, human
Conditions: other: redox cycling; quinone varied; 200 μM NADPH fixed; pH 7.0

B1: recombinant human DCXR (Homo sapiens) (protein)
chain: MELFLAGRRVLVTGAGKGIGRGTVQALHATGARVVAVSRTQADLDSLVRECPGIEPVCVDLGDWEATERALGSVGPVDLLVNNAAVALLQPFLEVTKEAFDRSFEVNLRAVIQVSQIVARGLIARGVPGAIVNVSSQCSQRAVTNHSVYCSTKGALDMLTKVMALELGPHKIRVNAVNPTVVMTSMGQATWSDPHKAKTMLNRIPLGKFAEVEHVVNAILFLLSDRSGMTTGSTLPVEGGFWAC
With B1 the Km was 365.80 µM, the kcat was 0.022 s⁻¹ and the kcat/Km was 66.7 M⁻¹ s⁻¹.
